Reference: patent publication US20140271653A1 (Regeneron, published 2014)

Tests used:
[1] = molecular target: RSV-F of RSV subtype A strain A2 (1540) (respiratory syncytial virus subtype A, …, UniProt P03420 26-574); assay: cell-based or functional assay
[2] = molecular target: T1, RSV-F.mmh (Respiratory Syncytial Virus); assay: SPR (Biacore), mAb captured via Fc, soluble RSV-F.mmh injected, 25 C
T1 construct: also called recombinant RSV-F; soluble monomeric RSV-F

B1: H1H3589P (antibody, V domains shown)
VH: EVQLVESGGGLVQPGGSLRLSCEASGFTFSTYWMSWVRQAPGKGLEWVANIKQDGSVKYFVDSVKGRFTVSRDNAKNSLYLQMNSLRAEDTALYHCARERHRGSYYGYYDGMDVWGQGTTVTVSS
VL: DIQMTQSPSSLSASVGDRVTITCRASQNIDIYLNWYQERPGKAPNLLIYAASSLQSGVPSRFSGSGSGTDFTLTISSLQPEDFATYYCQQSYNTPFTFGGGTKVEIK
In the case of B1, the “IC50 [pM] for RSV A2 Neutralization, Trial 5” value [1] is reported as 300 pM, the Kd [2] is reported as 243 nM and the koff [2] is reported as 0.00914 s⁻¹. For the same binder, the kon [2] was 37700 M⁻¹ s⁻¹ and the “t½” value [2] was 0.0167 h.

B2: H1H3567P (antibody, V domains shown)
VH: QVQLVQSGAEVKKPGASVKVSCKASGYTLTGYYLHWVRQAPGQGLEWMGWINPTSGGTNYAQKFQGRVTMTRDTSISAAFMELSRLRSDDTAVYHCAREFWPHGMDVWGQGTTVTVSS
VL: AIQMTQSPSSLSASVGDRVTITCRASQAIRNDLGWYQQKPGKAPKLLIYASSSLQSGVPSRFSGSGSGTDFTLTISSLQPEDFATYYCLADYKYTWTFGQGTKVEIK
For B2, the “IC50 [pM] for RSV A2 Neutralization, Trial 4” value (from here on “IC50 [pM] … Trial 4”) [1] was 257 pM, the “IC50 [pM] for RSV A2 Neutralization, Trial 6” value (from here on “IC50 [pM] … Trial 6”) [1] was 390 pM and the Kd [2] was 43.4 nM. The koff [2] was 0.00263 s⁻¹, the kon [2] was 60500 M⁻¹ s⁻¹ and the “t½” value [2] was 0.0667 h.

B3: H1H3592P (antibody, V domains shown)
VH: EVQLVESGGDLVQPGRSLRLSCVASGFTFDDYAMHWVRQAPGKGLEWVSGVSWSGSTVGYADSVKGRFTVSRDNAQKSLYLQMNSLRAEDTALYYCVKDAYKWNYYYYGLDVWGQGTTVTVSS
VL: EIVMTQSPATLSVSPGERATLSCRASQTILSNLAWYLQKPGQAPRLLIYGASTRATGLPARFSGSGSGTEFTLTISSLQSEDFAVYYCQQYNNWPLTFGGGTKVEIK
B3 was tested, and the “IC50 [pM] … Trial 4” value [1] was 6 pM, the “IC50 [pM] … Trial 6” value [1] was 5 pM and the “IC50 [pM] for RSV A2 Neutralization, Trial 7” value [1] was 4 pM. For the same binder, the Kd [2] was 4.39 nM, the koff [2] was 0.000466 s⁻¹ and the kon [2] was 106000 M⁻¹ s⁻¹. For the same binder, the “t½” value [2] was 0.417 h.

B4: H1H3592P2 (antibody, V domains shown)
VH: EVQLVESGGDLVQPGRSLRLSCVASGFTFDDYAMHWVRQAPGKGLEWVSGVSWSGSTVGYADSVKGRFTVSRDNAQKSLYLQMNSLRAEDTALYYCVKDAYKYNYYYYGLDVWGQGTTVTVSS
VL: EIVMTQSPATLSVSPGERATLSCRASQTILSNLAWYLQKPGQAPRLLIYGASTRATGLPARFSGSGSGTEFTLTISSLQSEDFAVYYCQQYNNWPLTFGGGTKVEIK
For B4, the Kd [2] was 14.7 nM, the koff [2] was 0.00146 s⁻¹ and the kon [2] was 99300 M⁻¹ s⁻¹. The “t½” value [2] was 0.133 h.

B5: H1H3565P (antibody, V domains shown)
VH: QVQLVESGGGVVQPGRSLRLSCAASGFTFNSYGMHWVRQAPGKGLEWVTFIWSDGSNKYYLDSVKGRFTISRDNSKNTLYLQMNSLRAEDTAVYYCARSGLASYYYYGMDVWGQGTTVTVSS
VL: DIQMTQSPSSLSASVGDRVTITCRASQGIRNDLGWYQQKPGKAPKRLIYGASSLQSGVPSRFSGSGSGTEFTLTISSLQPEDFATYSCLQHNSYPWTFGQGTKVEIK
In the case of B5, the “IC50 [pM] for RSV A2 Neutralization, Trial 1” value (from here on “IC50 [pM] … Trial 1”) [1] is reported as greater than 10000 pM, the Kd [2] is reported as 3.01 nM and the koff [2] is reported as 5.8e-05 s⁻¹. For the same binder, the kon [2] was 19300 M⁻¹ s⁻¹ and the “t½” value [2] was 3.32 h.

B6: H1H3566P (antibody, V domains shown)
VH: QVQLVESGGGVVQPGRSLRLSCAASGFTFSSYGMHWVRQAPGKGLEWVVFLWYDGSNKHYADSVKGRFTISRDNSKNTLYLQMNSLRAEDTAVYYCARSGLASYYYYSMDVWGQGTTVTVSS
VL: DIQMTQSPSSLSASVGDRVTITCRASQGIRNDLAWYQQKPGKAPKRLIYGASSLHSGVPSRFSGSGSGTEFTLTISSLQPEDFATYSCLQHNSYPWTFGQGTKVEIK
For B6, the “IC50 [pM] … Trial 1” value [1] was greater than 10000 pM, the Kd [2] was 2.06 nM and the koff [2] was 4.2e-05 s⁻¹. The kon [2] was 20400 M⁻¹ s⁻¹ and the “t½” value [2] was 4.58 h.

B7: H1H3581P (antibody, V domains shown)
VH: EVQLVESGGGLVHPGGSLRLSCEASGFTLSSHVMSWVRQVPGKGLEWVSRISGPGGSTKYADSVQGRFTTSRDNSKNTLYLQMNSLIAEDSAAYYCAKGGGYSGYDWDFYYGMDVWGQGTTVTVSS
VL: DIQMTQSPSSVSASVGDRVTITCRASQGISSWLAWYQQKPGKAPKLLIYAASSLQSGVPSRFSGSGSGTDFTLTISSLQPEDFATYYCQQTNSFPLTFGGGTKVDIK
B7 was tested, and the “IC50 [pM] … Trial 1” value [1] was greater than 10000 pM and the binding result [2] was “no binding”.

B8: H1H3607P (antibody, V domains shown)
VH: QVQLVESGGGLVKPGGSLRLSCAASGFTFSDYYMTWIRQVPGKGLEWVSYISSTGNNRYYGDSVKGRFAISRDNAKNLLFLQMNSLKAEDTAVYYCARENNWNPYFFYYGMDVWGQGTTVTVSS
VL: DIQMTQSPSSVSASVGDRVTITCRASQGISIWLAWYQQKPGKAPKLLISAASTLQSGVPSRFSGSGSGTDFTLTISSLQPEDFATYYCQQANSFPLTFGQGTKVEIK
For B8, the “IC50 [pM] … Trial 1” value [1] was greater than 10000 pM, the Kd [2] was 35 nM and the koff [2] was 0.000148 s⁻¹. The kon [2] was 4200 M⁻¹ s⁻¹ and the “t½” value [2] was 1.3 h.

B9: H1H3591P (antibody, V domains shown)
VH: EVQLVESGGGLVQPGRSLRLSCAASGFTFDDYAMHWVRQTPGKGLEWISGISWSSGTIVYADSVKGRFTISRDNAKNSLYLQMNSLRGEDTALYHCAKDGYRWKSYSYGLDVWGQGTTVTVSS
VL: EIVMTQSPATLSLSPGERATLSCRPSQSVINNLAWYQQKPGQAPRLLIFGASSRATGIPARFSGSGSGTEFTLTISSLQSEDFALYYCQQYNNWPLTFGGGTKVEIK
With B9 the “IC50 [pM] … Trial 4” value [1] was 6 pM, the “IC50 [pM] … Trial 6” value [1] was 8 pM and the “IC50 [pM] for RSV A2 Neutralization, Trial 7” value [1] was 6 pM. It also gave a Kd [2] of 34.2 nM, a koff [2] of 0.00153 s⁻¹ and a kon [2] of 44600 M⁻¹ s⁻¹. The “t½” value [2] was 0.133 h.

B10: H1H3604P (antibody, V domains shown)
VH: QVQLVESGGGLVKPGGSLRLSCAASGFTFSDYYMTWIRQAPGRGLEWVSYISDTGSHLYYADSVRGRFTISRDNAKNSLYLQMNNLRAEDTAVYYCARDQDGEMELRFFDYWGQGTLVTVSS
VL: EIVLTQSPATLSLSPGERGTLSCRASQSINNYLAWYQQKPGQAPRLLIFDASNRATGIPARFSGSGSGTDFTLTISRIEPEDFAVYYCQQRTNWPLTFGGGTKVEIK
For B10, the “IC50 [pM] … Trial 1” value [1] was greater than 10000 pM, the Kd [2] was 30 nM and the koff [2] was 9.27e-05 s⁻¹. The kon [2] was 3100 M⁻¹ s⁻¹ and the “t½” value [2] was 2.08 h.

B11: H1H3583P (antibody, V domains shown)
VH: QVQLVQSGAEVKKSGSSVKVSCKASGGTFSSYAISWVRQAPGQGLEWMGGIIPIFGTGNYAQKFQGRVTITTDESTSTAYMELSSLRSEDTAVYYCARDSSSSPRYYGMDVWGHGTTVTVSS
VL: EIVLTQSPATLSLSPGERATLSCRASQSVTSYLAWYQQKPGQAPRLLIYDVSKRATGIPARFSGSGSGTDFTLTISSLEPEDFATYYCQQRSNWPPTFGQGTRLEIK
B11 was tested, and the “IC50 [pM] for RSV A2 Neutralization, Trial 5” value [1] was 50 pM, the Kd [2] was 34.4 nM and the koff [2] was 0.00308 s⁻¹. The kon [2] was 89400 M⁻¹ s⁻¹ and the “t½” value [2] was 0.0667 h.

B12: H1H3564P (antibody, V domains shown)
VH: QVQLVQSGAEVKKPGSSVKVSCKASGGTLSNNAFSWVRQAPGQGLEWLGGFNPIFDTANYAQKFQGRITITLDASTGTVYMELSSLRSEDTGVYYCAGTGAHFEFWGQGTLVTVSS
VL: DIQMTQSPSSLSASVGDRVTITCRTSQSISTYLNWYQQKPGKAPKFLIYAASTLQSGVPSRFSGSGSRTDFTLTISSLQPEDFATYYCQQSVSVPYTFGQGTKLEIK
B12 was tested, and the “IC50 [pM] … Trial 1” value [1] was greater than 10000 pM, the Kd [2] was 25 nM and the koff [2] was 7.78e-05 s⁻¹. The kon [2] was 3100 M⁻¹ s⁻¹ and the “t½” value [2] was 2.47 h.

B13: H1H3597P (antibody, V domains shown)
VH: EVQLVESGGGLVQPGGSLRLSCGASGFTFRDFDMNWVRQAPGRGLEWVSGIGGSGGNTYYADSVKGRFTISRDNSKNTLFLQMSSLRAEDTAVYYCVKDPYGDYRNYYGMDVWGQGTTVTVSS
VL: DIVMTQSPLSLPVTPGEPASISCRSSQSLLHSNGYNYLDWYLQKPGQSPQLLIYLGSNRASGVPDRFRGSGSDKDFTLKISRVGAEDVGVYYCMQALQTITFGQGTRLEIK
For B13, the “IC50 [pM] … Trial 1” value [1] was greater than 10000 pM and the binding result [2] was “no binding”.

B14: H1H3598P (antibody, V domains shown)
VH: EVQLVESGGGLGQPGGSLRLSCGASGFMFRNYAMSWVRQAPGKGLEWVSTILDSGDNTYYADSVKGRFTISRDNSKNTLYLQMNSLRAEDTAVYYCAKDPYGDYRDYYGMDVWGQGTTVTVSS
VL: DIVMTQSPLSLPVTPGEPASISCRSSQSLLHSNGYNYLDWYLQKPGQSPQLLIYLGSNRASGVPDRFRGSGSGKDFTLKISRVEAEDVGLYYCMQALQTITFGQGTRLEIK
For B14, the “IC50 [pM] … Trial 1” value [1] was greater than 10000 pM and the binding result [2] was “no binding”.

B15: H1H3608P2 (antibody, V domains shown)
VH: QVQLVESGGGVVQPGRSLRLSCAASGFTFSSYGMHWVRQAPGKGLEWVAVIYYEGSNDYYVDSVKGRFTISRDNSKNTLYLQMNSLRAEDTAVYYCARRDWNSFDYWGQGTLVTVSS
VL: DIVMTQSPLSLSVTPGEPASISCRSSQNLLNRNGFNYLDWYLQKPGQSPQLLIYLGSNRASGVPDRFSGSGSGTDFTLKISRVEVEDVGVYYCMQAIQTPYTFGQGTKLEIK
For B15, the “IC50 [pM] … Trial 1” value [1] was greater than 10000 pM, the Kd [2] was 5.35 nM and the koff [2] was 2.6e-05 s⁻¹. The kon [2] was 4850 M⁻¹ s⁻¹ and the “t½” value [2] was 7.42 h.

B16: H1H3603P (antibody, V domains shown)
VH: QVQLQESGPGLVKPSETLSLTCTVSGGSISGYYWTWIRQPPGKGLEWIGYIYYSGATNYNPSLKSRVTISLDTSKNQFSLKLSSVTAADTAVYYCARDGNYDILTGYYNYHYYGMDVWGQGTTVTVSS
VL: DIQMTQSPSSLSASVGDRVTITCRASQDIGNYLAWFQQKPGKAPESLIYAASILQSGVPSKFSGSGSGTDFTLTISSLQPEDFATYYCQQYNTFPWTFGQGTKVEIK
B16 was tested, and the “IC50 [pM] … Trial 1” value [1] was greater than 10000 pM, the Kd [2] was 41 nM and the koff [2] was 0.000123 s⁻¹. The kon [2] was 3000 M⁻¹ s⁻¹ and the “t½” value [2] was 1.57 h.

B17: H1H3605P (antibody, V domains shown)
VH: QVQLQESGPGLVKPSETLSLTCTVSGGFISNYYWSWIRQPPGKGLEWIGYIYYSGSTKYNPSLKSRVTISVDTSKNQFSLKLSSVSAADTAVYYCARDGVVAAAGPPYHYHYGLDVWGQGTTVTVSS
VL: DIVMTQSPDSLAVSLGERATINCKSSQNLLYTSSNKNSLAWYQQKPGQPPELLIYWASTRESGVPDRFSGSGSGTDFILTISSLQAEDVAVYYCQQYYSSPWTFGQGTKVEIK
For B17, the “IC50 [pM] … Trial 1” value [1] was greater than 10000 pM, the Kd [2] was 59 nM and the koff [2] was 0.000168 s⁻¹. The kon [2] was 2800 M⁻¹ s⁻¹ and the “t½” value [2] was 1.15 h.
